According to PMC9246348:

What was measured:
ADP-Glo kinase assay [1] = substrate: O=c1ccn([C@@H]2O[C@H](CO)[C@@H](O)[C@H]2O)c(=O)[nH]1; assay: ADP-Glo kinase assay; assay type: biochemical, Homo sapiens; conditions: 100 µM ATP, 50 mM Tris pH 7.5, 5 mM MgCl2, 2 mM DTT, room temperature
ADP-Glo kinase assay [2] = substrate: Nc1ccn([C@@H]2O[C@H](CO)[C@@H](O)[C@H]2O)c(=O)n1; assay: ADP-Glo kinase assay; assay type: biochemical, Homo sapiens; conditions: 100 µM ATP, 50 mM Tris pH 7.5, 5 mM MgCl2, 2 mM DTT, room temperature

B1: UCK2 (Homo sapiens) (protein)
chain: MAGDSEQTLQNHQQPNGGEPFLIGVSGGTASGKSSVCAKIVQLLGQNEVDYRQKQVVILSQDSFYRVLTSEQKAKALKGQFNFDHPDAFDNELILKTLKEITEGKTVQIPVYDFVSHSRKEETVTVYPADVVLFEGILAFYSQEVRDLFQMKLFVDTDADTRLSRRVLRDISERGRDLEQILSQYITFVKPAFEEFCLPTKKYADVIIPRGADNLVAINLIVQHIQDILNGGPSKRQTNGCLNGYTPSRKRQASESSSRPH
Km (ADP-Glo kinase assay [1]): 207.3 µM
Vmax (ADP-Glo kinase assay [1]): 3.98 µmol/min/mg
kcat/Km (ADP-Glo kinase assay [1]): 15000 M⁻¹ s⁻¹
Km (ADP-Glo kinase assay [2]): 25.07 µM
Vmax (ADP-Glo kinase assay [2]): 1.09 µmol/min/mg
kcat/Km (ADP-Glo kinase assay [2]): 35000 M⁻¹ s⁻¹
